Results from patent US20160303245A1, “FATTY ACID DERIVATIVES OF DIMERIC INHIBITORS OF PSD-95” (UNIVERSITY OF COPENHAGEN, priority 2013, published 2016).

What was measured:
[1] = target: Human Serum Albumin (human) (UniProt P02768); assay: Transil XL HSA binding kit (immobilized HSA), unbound compound by RP-HPLC
[2] = target: Human Serum Albumin (human) (UniProt P02768); assay: calculated from KD at 588 µM HSA (equation 2)
[3] = target: Human Serum Albumin (human) (UniProt P02768); assay: calculated from KD(HSA) at 150 µM HSA (equation 2)

For UCCB01-144 (peptide), the Kd [1] was 318 µM, the fb (%), fraction bound to HSA [2] was 65.3% and the fu (%), fraction unbound [3] was 67.9%.
